Results reported in IntAct's records for PubMed 35512704.

B1: Mothers against decapentaplegic homolog 4 (Homo sapiens), Q13485 (parent)
chain: MDNMSITNTPTSNDACLSIVHSLMCHRQGGESETFAKRAIESLVKKLKEKKDELDSLITAITTNGAHPSKCVTIQRTLDGRLQVAGRKGFPHVIYARLWRWPDLHKNELKHVKYCQYAFDLKCDSVCVNPYHYERVVSPGIDLSGLTLQSNAPSSMMVKDEYVHDFEGQPSLSTEGHSIQTIQHPPSNRASTETYSTPALLAPSESNATSTANFPNIPVASTSQPASILGGSHSEGLLQIASGPQPGQQQNGFTGQPATYHHNSTTTWTGSRTAPYTPNLPHHQNGHLQHHPPMPPHPGHYWPVHNELAFQPPISNHPAPEYWCSIAYFEMDVQVGETFKVPSSCPIVTVDGYVDPSGGDRFCLGQLSNVHRTEAIERARLHIGKGVQLECKGEGDVWVRCLSDHAVFVQSYYLDREAGRAPGDAVHKIYPSAYIKVFDLRQCHRQMQQQAATAQAAAAAQAAAVAGNIPGPGSVGGIAPAISLSAAAGIGVDDLRRLCILRMSFVKGWGPDYPRQSIKETPCWIEIHLHRALQLLDEVLHTMPIADPQPLD
partner: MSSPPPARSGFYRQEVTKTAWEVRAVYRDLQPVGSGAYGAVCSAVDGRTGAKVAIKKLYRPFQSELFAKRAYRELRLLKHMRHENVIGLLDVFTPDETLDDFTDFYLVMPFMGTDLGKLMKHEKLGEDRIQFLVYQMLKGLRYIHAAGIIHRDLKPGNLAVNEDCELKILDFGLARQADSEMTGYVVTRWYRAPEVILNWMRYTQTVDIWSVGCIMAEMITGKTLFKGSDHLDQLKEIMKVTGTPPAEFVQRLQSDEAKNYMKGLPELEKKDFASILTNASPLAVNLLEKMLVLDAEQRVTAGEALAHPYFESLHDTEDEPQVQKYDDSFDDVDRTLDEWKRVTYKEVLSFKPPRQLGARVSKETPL
B2: Mothers against decapentaplegic homolog 4 (Homo sapiens), Q13485 (parent)
chain: B1 chain
partner: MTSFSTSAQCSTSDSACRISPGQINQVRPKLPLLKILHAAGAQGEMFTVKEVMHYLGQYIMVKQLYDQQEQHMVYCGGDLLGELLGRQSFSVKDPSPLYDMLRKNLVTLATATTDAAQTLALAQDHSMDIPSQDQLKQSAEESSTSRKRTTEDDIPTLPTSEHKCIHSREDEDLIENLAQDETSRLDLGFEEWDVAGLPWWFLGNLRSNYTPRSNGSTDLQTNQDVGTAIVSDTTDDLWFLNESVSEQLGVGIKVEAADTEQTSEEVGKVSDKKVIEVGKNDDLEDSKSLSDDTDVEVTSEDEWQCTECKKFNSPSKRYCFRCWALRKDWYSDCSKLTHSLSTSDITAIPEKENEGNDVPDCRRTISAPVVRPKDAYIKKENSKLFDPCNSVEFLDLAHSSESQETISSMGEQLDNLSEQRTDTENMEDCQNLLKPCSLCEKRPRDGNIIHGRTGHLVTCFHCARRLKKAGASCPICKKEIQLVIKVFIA
B3: Mothers against decapentaplegic homolog 4 (Homo sapiens), Q13485 (parent)
chain: B1 chain
partner: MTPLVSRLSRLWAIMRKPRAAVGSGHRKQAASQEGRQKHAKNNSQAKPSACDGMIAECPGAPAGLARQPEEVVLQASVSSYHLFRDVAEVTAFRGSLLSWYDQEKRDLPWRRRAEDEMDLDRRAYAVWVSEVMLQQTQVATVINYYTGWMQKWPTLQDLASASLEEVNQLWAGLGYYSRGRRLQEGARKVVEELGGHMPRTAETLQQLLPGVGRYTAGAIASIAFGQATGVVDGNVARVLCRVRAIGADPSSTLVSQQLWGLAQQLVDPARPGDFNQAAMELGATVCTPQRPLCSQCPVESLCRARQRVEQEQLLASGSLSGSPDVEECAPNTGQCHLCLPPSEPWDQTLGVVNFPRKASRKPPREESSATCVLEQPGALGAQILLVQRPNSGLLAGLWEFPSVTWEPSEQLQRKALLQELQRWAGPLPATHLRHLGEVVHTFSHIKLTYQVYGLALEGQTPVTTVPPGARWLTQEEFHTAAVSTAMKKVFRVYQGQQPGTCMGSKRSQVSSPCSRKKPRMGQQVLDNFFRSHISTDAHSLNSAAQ
B4: Mothers against decapentaplegic homolog 4 (Homo sapiens), Q13485 (parent)
chain: B1 chain
partner: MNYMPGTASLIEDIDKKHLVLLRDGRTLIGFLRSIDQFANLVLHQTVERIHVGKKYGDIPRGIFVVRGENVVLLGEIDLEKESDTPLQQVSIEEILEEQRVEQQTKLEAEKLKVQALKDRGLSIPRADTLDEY
B5: Mothers against decapentaplegic homolog 4 (Homo sapiens), Q13485 (parent)
chain: B1 chain
partner: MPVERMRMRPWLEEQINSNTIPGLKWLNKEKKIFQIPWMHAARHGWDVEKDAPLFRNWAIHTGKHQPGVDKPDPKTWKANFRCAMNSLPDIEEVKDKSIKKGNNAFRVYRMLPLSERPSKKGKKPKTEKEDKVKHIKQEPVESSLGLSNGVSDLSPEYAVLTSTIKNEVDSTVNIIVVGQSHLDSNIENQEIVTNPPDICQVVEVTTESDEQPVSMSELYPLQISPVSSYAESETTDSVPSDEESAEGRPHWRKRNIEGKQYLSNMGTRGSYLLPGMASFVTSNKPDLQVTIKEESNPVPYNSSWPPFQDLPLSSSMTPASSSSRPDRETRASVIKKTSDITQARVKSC
B6: Mothers against decapentaplegic homolog 4 (Homo sapiens), Q13485 (parent)
chain: B1 chain
partner: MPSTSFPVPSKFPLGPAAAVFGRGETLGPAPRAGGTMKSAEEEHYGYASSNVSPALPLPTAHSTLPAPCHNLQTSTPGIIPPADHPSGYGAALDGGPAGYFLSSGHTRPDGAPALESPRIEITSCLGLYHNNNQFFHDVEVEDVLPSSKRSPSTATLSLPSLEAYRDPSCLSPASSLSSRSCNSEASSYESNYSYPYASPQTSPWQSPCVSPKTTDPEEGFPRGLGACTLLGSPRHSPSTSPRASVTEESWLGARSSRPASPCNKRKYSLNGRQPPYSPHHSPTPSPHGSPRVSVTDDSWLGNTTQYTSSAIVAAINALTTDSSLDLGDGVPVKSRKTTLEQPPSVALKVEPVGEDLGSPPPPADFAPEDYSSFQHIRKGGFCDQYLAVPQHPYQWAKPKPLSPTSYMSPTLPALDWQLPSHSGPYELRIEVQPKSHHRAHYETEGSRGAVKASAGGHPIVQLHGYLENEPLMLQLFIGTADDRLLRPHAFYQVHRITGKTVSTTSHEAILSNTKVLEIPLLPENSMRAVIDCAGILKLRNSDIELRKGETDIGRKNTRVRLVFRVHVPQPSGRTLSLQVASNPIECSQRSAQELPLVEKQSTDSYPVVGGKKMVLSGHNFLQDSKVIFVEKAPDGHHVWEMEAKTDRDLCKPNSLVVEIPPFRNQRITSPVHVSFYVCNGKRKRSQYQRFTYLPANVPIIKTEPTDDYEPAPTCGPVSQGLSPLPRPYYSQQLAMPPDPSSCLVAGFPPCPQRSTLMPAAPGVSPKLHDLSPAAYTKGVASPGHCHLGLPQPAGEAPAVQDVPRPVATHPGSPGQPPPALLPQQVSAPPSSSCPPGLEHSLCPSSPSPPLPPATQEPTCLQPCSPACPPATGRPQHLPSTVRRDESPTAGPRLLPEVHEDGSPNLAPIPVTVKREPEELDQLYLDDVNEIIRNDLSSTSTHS
B7: Mothers against decapentaplegic homolog 4 (Homo sapiens), Q13485 (parent)
chain: B1 chain
partner: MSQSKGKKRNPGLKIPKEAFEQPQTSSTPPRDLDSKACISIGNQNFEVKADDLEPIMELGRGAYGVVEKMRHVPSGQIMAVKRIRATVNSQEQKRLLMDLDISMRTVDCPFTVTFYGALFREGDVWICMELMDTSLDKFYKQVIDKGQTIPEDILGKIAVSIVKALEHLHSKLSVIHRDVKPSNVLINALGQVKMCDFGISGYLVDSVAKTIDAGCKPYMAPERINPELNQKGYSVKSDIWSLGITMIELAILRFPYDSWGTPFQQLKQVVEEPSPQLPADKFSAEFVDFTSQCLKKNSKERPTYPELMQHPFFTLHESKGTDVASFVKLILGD

Variants of: B1
Settings: with mk12_human MAPK12, P53778

Variant | effect of a mutation on the interaction
R361H | with no effect

Variants of: B1
Settings: with mk12_human MAPK12, P53778
Remark: another data set of the same source

Variant | effect of a mutation on the interaction
R361C | with no effect

Variants of: B1
Settings: with mk12_human MAPK12, P53778
Remark: another data set of the same source

Variant | effect of a mutation on the interaction
G386D | with no effect

Variants of: B1
Settings: with mk12_human MAPK12, P53778
Remark: another data set of the same source

Variant | effect of a mutation on the interaction
D351H | with no effect

Variants of: B2
Settings: with mdm4_human MDM4, O15151

Variant | effect of a mutation on the interaction
G386D | with no effect

Variants of: B2
Settings: with mdm4_human MDM4, O15151
Remark: another data set of the same source

Variant | effect of a mutation on the interaction
R361H | with no effect

Variants of: B2
Settings: with mdm4_human MDM4, O15151
Remark: another data set of the same source

Variant | effect of a mutation on the interaction
D351H | with no effect

Variants of: B3
Settings: with mutyh_human MUTYH

Variant | effect of a mutation on the interaction
R361C | with no effect

Variants of: B3
Settings: with mutyh_human MUTYH
Remark: another data set of the same source

Variant | effect of a mutation on the interaction
G386D | with no effect

Variants of: B3
Settings: with mutyh_human MUTYH
Remark: another data set of the same source

Variant | effect of a mutation on the interaction
D351H | with no effect

Variants of: B4
Settings: with lsm1_human LSM1, O15116

Variant | effect of a mutation on the interaction
R361H | with no effect

Variants of: B4
Settings: with lsm1_human LSM1, O15116
Remark: another data set of the same source

Variant | effect of a mutation on the interaction
R361C | with no effect

Variants of: B4
Settings: with lsm1_human LSM1, O15116
Remark: another data set of the same source

Variant | effect of a mutation on the interaction
D351H | with no effect

Variants of: B4
Settings: with lsm1_human LSM1, O15116
Remark: another data set of the same source

Variant | effect of a mutation on the interaction
G386D | with no effect

Variants of: B5
Settings: with irf2_human IRF2, P14316

Variant | effect of a mutation on the interaction
D351H | with no effect

Variants of: B5
Settings: with irf2_human IRF2, P14316
Remark: another data set of the same source

Variant | effect of a mutation on the interaction
G386D | with no effect

Variants of: B5
Settings: with irf2_human IRF2, P14316
Remark: another data set of the same source

Variant | effect of a mutation on the interaction
R361C | with no effect

Variants of: B6
Settings: with nfac1_human NFATC1, O95644

Variant | effect of a mutation on the interaction
R361H | with no effect

Variants of: B6
Settings: with nfac1_human NFATC1, O95644
Remark: another data set of the same source

Variant | effect of a mutation on the interaction
R361C | with no effect

Variants of: B6
Settings: with nfac1_human NFATC1, O95644
Remark: another data set of the same source

Variant | effect of a mutation on the interaction
G386D | with no effect

Variants of: B6
Settings: with nfac1_human NFATC1, O95644
Remark: another data set of the same source

Variant | effect of a mutation on the interaction
D351H | with no effect

Variants of: B7
Settings: with mp2k6_human MAP2K6, P52564

Variant | effect of a mutation on the interaction
G386D | with no effect

Variants of: B7
Settings: with mp2k6_human MAP2K6, P52564
Remark: another data set of the same source

Variant | effect of a mutation on the interaction
R361H | with no effect
